The results in this text go back to patent publication US20240093191A1, “COMPOSITIONS AND METHODS FOR TREATING DISEASE ASSOCIATED WITH DUX4 OVEREXPRESSION” (RESEARCH INSTITUTE AT NATIONWIDE CHILDREN'S HOSPITAL, priority 2021, published 2024).

In one data set the test system is pri-mir-675. Kind of data set: TaqMan QRT-PCR of pri-mir-675 from transfected constructs in HEK293 cells. Type of data set: cell-based, human. Conditions: 24 h post-transfection. From the text: RNA Extraction. RNA from HEK293 cells was extracted for Northern blot assay and QPCR. The miRVANA miRNA isolation kit (ThermoFisher Scientific) was used according to manufacturer's directions to extract total RNA encompassing small RNAs, such as miRNAs. To extract RNA from C57BL/6 skeletal muscles, cryopreserved muscles were crushed under suboptimal temperatures using liquid nitrogen and using mortar and pestle. Crushed muscles were then lysed using […] of miRVANA miRNA isolation kit lysis buffer, a TissueLyser and 1.0 mm zirconia beads (Biospec). Muscle was homogenized at 30 Hz for 30 sec with 10 sec rest. This was repeated 3 times.
TaqMan Gene Expression Assay. QRT-PCR was carried out to quantify the expression of pri-mir-675, mir-675-5p and mi405 using TaqMan probes (ThermoFisher Scientific). Experiments were started by eliminating genomic DNA from the RNA preparations, and then cDNA was generated using the High-Capacity cDNA Reverse Transcription Kit (Applied Biosystems) following manufacturer's instructions. Within the same cDNA reaction, 1×RT random hexamer primers were used to generate the cDNA for RPL13A, used as a reference gene, and for pri-mir-675. To generate the cDNA for mir-675, the RT mir-675 reverse primer provided by ThermoFisher Scientific was used. For mi405, the mi405 qPCR protocol was done as it was previously described [Wallace et al., Mol. Ther. Methods Clin. Dev. 8: 121-30 (2018)]. To quantify mir-675 and mi405 levels, RNA was extracted using the total RNA protocol for the mirVana miRNA Isolation Kit (Ambion) from HEK293 cells. cDNA was generated using the High-Capacity cDNA Reverse Transcription Kit (Applied Biosystems) using a mix of random hexamer primers and specific reverse primer for pri-mir-675 and mir-675-5p. For mi405, 200 nM of the stem-loop forming primer (5′-[…]-3′) (SEQ ID NO: 144) was also used for the RT step. A custom TaqMan assay (Applied Biosystems) including 1.5 μM of Forward primer (5′-[…]-3′) (SEQ ID NO: 145), 0.7 μM of Reverse primer (5′-GTGCAGGGTCCGAGGT-3′) (SEQ ID NO: 146), and 0.2 μM of mi405 probe (5′-6FAM-ATACGACGTCCAGGAT-3′) (SEQ ID NO: 147) was then run using the CFX Connect Real Time system apparatus (Bio-Rad). RPL13A (Mm02526700_g1; Applied Biosystems) served as the reference gene. The TaqMan gene expression assay consisted of using the TaqMan Gene Expression Master mix and TaqMan probes purchased from ThermoFisher Scientific. 1× of probe was mixed with 1× of the TaqMan Gene Expression Master mix (ThermoFisher Scientific), and with 20 ng of cDNA. The mir-675- and mi405-specific primers and probes were designed to quantify only the mir-675-5p and mi405 mature sequence (see TaqMan Gene Expression Master mix protocol).

A further data set has as its system DUX4 mRNA. Kind of data set: QPCR (SYBR green) of DUX4 mRNA in co-transfected HEK293 cells. Type of data set: cell-based, human. The note with it: 3 to 1 ratio with DUX4 construct, normalized to egfp, relative to milacZ. How it is done: H1.mir-675 construct was transfected in a 3 to 1 ratio with DUX4 construct in HEK293 cells, and collected RNA extracts 24 and 48h after transfection. Total RNA was prepared using the miRVANA isolation kit. DUX4 and egfp (used as the reference gene) mRNA levels were determined using the SYBR green master mix as described in materials and methods. All values were normalized to egfp, and were reported relative to milacZ treated samples. At 24 and 48h after transfection, DUX4 levels decreased by an average of 37±2% (P<0.0001, ANOVA, N=3) and 51±2% (P<0.0001, ANOVA, N=3), respectively. Results were reported as the average relative DUX4 expression±SEM of three replicates. […] When compared to the milacZ sample, mir-675-5p overexpressed levels were ˜2000-fold higher (P<0.0001, ANOVA, N=3). Results were reported as the average relative mir-675-5p expression (2^−ΔCq)±SEM of three replicates.

B1: H1.mir-675: commercially available H1 promoter mir-675 expression plasmid (SBI Biosciences) (nucleic acid)
DNA: GAACGCTGACGTCATCAACCCGCTCCAAGGAATCGCGGGCCCAGTGTCACTAGGCGGGAACACCCAGCGCGCGTGCGCCCTGGCAGGAAGATGGCTGTGAGGGACAGGGGAGTGGCGCCCTGCAATATTTGCATGTCGCTATGTGTTCTGGGAAATCACCATAAACGTGAAATGTCTTTGGATTTGGGAATCTTATAAGTTCTGTATGAGACCACCCCCCAGGGTCTGGTGCGGAGAGGGCCCACAGTGGACTTGGTGACGCTGTATGCCCTCACCGCTCAGCCCCTGGGGAATTCTTCGATTCTGCTTTTTT
Turning to B1, the “pri-mir-675 levels compared to U6.mir-675” value with pri-mir-675 is 320±43%. For the same molecule, the “decrease of DUX4 mRNA levels” value with DUX4 mRNA (24 h) stood at 37±2%; in the data set on DUX4 mRNA (48 h), 51±2%.
